Data reported in publication PMC3113298.

Target: Cu, Zn-superoxide dismutase-1 (SOD1), human (human) (UniProt P00441)
Sequence (P00441 whole entry): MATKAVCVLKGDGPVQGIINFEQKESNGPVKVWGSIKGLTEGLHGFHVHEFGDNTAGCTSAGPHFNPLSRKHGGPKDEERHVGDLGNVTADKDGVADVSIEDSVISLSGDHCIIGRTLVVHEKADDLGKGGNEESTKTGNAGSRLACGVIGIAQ

B1: Puromycin-sensitive aminopeptidase (PSA/NPEPPS), rat (enzyme)
chain: MWLAAAVPSLARRLLLLGSPPPPLLLLLSRSSSRRRRLHSLGLAAMPEKRPFERLPTEVSPINYSLCLKPDLLDFTFEGKLEAAAQVRQATNQIVMNCADIDIITASYAPEGDEEIHATGFNYQNEDEKVTLSFPSTLQTGTGTLKIDFVGELNDKMKGFYRSRYTTPAGEVRYAAVTQFEATDARRAFPCWDEPAIKATFDISLVVPKDRVALSNMNVIDRKPYPDDENLVEVKFARTPVMSTYLVAFVVGEYDFVETRSKDGVCVRVYTPVGKAEQGKFALEVAAKTLPFYKDYFNVPYPLPKIDLIAIADFAAGAMENWGLVTYRETALLIDPKNSCSSSRQWVALVVGHELAHQWFGNLVTMEWWTHLWLNEGFASWIEYLCVDHCFPEYDIWTQFVSADYTRAQELDALDNSHPIEVSVGHPSEVDEIFDAISYSKGASVIRMLHDYIGDKDFKKGMNMYLTKFQQKNAATEDLWESLESASGKPIAAVMNTWTKQMGFPLIYVEAEQVEDDRVLKLSQKKFCASGPYVGEDCPQWMVPITISTSEDPNQAKLKILMDKPEMSVVLKNVKPDQWVKLNLGTVGFYRTQYSSAMLESLLPGIRDLSLPPVDRLGLQNDLFSLARAGIISTVEVLKVMEAFVNEPNYTVWSDLSCNLGILSTLLSHTDFYEEIQEFVKDVFSPIGERLGWDPKPGEGHLDALLRGLVLGKLGKAGHKATLEEARRRFKEHVEGKQILSADLRSPVYLTVLKHGDGTTLDIMLKLHKQADMQEEKNRIERVLGATLSPELIQKVLTFALSEEVRPQDTVSVIGGVAGGSKHGRKAAWKFIKDNWEELYNRYQGGFLISRLIKLSVEGFAVDKMAGEVKAFFESHPAPSAERTIQQCCENILLNAAWLKRDADSIHQYLLQRKASPPSV
Work on B1 yielded a proteolysis of purified human SOD1 by purified rat PSA/NPEPPS: loss of full-length SOD1 by Western blot after 6 h at 37°C, 50 mM Bicine pH 7.0, 0.2 mM DTT, molar ratio 1:6 (PSA:SOD1) of 80%.
